# Measurements taken from US20090099029.
# T1: Bovine, dephosphorylated, Myelin Basic Protein (MBP), P02687
# T1 chain: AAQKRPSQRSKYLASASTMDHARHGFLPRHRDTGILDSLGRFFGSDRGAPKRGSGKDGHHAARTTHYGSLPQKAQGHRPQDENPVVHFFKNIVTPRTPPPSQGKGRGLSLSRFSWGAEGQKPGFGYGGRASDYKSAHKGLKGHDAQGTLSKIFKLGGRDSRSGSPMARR
# Molecular target: T1, Bovine, dephosphorylated, Myelin Basic …
row,Protein,MBP Kinase Activity
1,MET (protein) KKRKQIKDLGSELVRYDARVHTPHLDRLVSARSVSPTTEMVSNESVDYRATFPEDQFPNSSQNGSCRQVQYPLTDMSPILTSGDSDISSPLLQNTVHIDLSALNPELVQAVQHVVIGPSSLIVHFNEVIGRGHFGCVYHGTLLDNDGKKIHCAVKSLNRITDIGEVSQFLTEGIIMKDFSHPNVLSLLGICLRSEGSPLVVLPYMKHGDLRNFIRNETHNPTVKDLIGFGLQVAKGMKYLASKKFVHRDLAARNCMLDEKFTVKVADFGLARDMYDKEYYSVHNKTGAKLPVKWMALESLQTQKFTTKSDVWSFGVLLWELMTRGAPPYPDVNTFDITVYLLQGRRLLQPEYCPDPLYEVMLKCWHPKAEMRPSFSELVSRISAIFSTFIGEHYVHVNATYVNVKCVAPYPSLLSSEDNADDEVDTRPASFWETS,Strong
2,FLT3 (protein) HKYKKQFRYESQLQMVQVTGSSDNEYFYVDFREYEYDLKWEFPRENLEFGKVLGSGAFGKVMNATAYGISKTGVSIQVAVKMLKEKADSSEREALMSELKMMTQLGSHENIVNLLGACTLSGPIYLIFEYCCYGDLLNYLRSKREKFHRTWTEIFKEHNFSFYPTFQSHPNSSMPGSREVQIHPDSDQISGLHGNSFHSEDEIEYENQKRLEEEEDLNVLTFEDLLCFAYQVAKGMEFLEFKSCVHRDLAARNVLVTHGKVVKICDFGLARDIMSDSNYVVRGNARLPVKWMAPESLFEGIYTIKSDVWSYGILLWEIFSLGVNPYPGIPVDANFYKLIQNGFKMDQPFYATEEIYIIMQSCWAFDSRKRPSFPNLTSFLGCQLADAEEAMYQNVDGRVSECPHTYQNRRPFSREMDLGLLSPQAQVEDS,Strong
3,PDGFRA (protein) KQKPRYEIRWRVIESISPDGHEYIYVDPMQLPYDSRWEFPRDGLVLGRVLGSGAFGKVVEGTAYGLSRSQPVMKVAVKMLKPTARSSEKQALMSELKIMTHLGPHLNIVNLLGACTKSGPIYIITEYCFYGDLVNYLHKNRDSFLSHHPEKPKKELDIFGLNPADESTRSYVILSFENNGDYMDMKQADTTQYVPMLERKEVSKYSDIQRSLYDRPASYKKKSMLDSEVKNLLSDDNSEGLTLLDLLSFTYQVARGMEFLASKNCVHRDLAARNVLLAQGKIVKICDFGLARDIMHDSNYVSKGSTFLPVKWMAPESIFDNLYTTLSDVWSYGILLWEIFSLGGTPYPGMMVDSTFYNKIKSGYRMAKPDHATSEVYEIMVKCWNSEPEKRPSFYHLSEIVENLLPGQYKKSYEKIHLDFLKSDHPAVARMRVDSDNAYIGVTYKNEEDKLKDWEGGLDEQRLSADSGYIIPLPDIDPVPEEEDLGKRNRHSSQTSEESAIETGSSSSTFIKREDETIEDIDMMDDIGIDSSDLVEDSFL,Strong
4,FGFR3 (protein) RLRSPPKKGLGSPTVHKISRFPLKRQVSLESNASMSSNTPLVRIARLSSGEGPTLANVSELELPADPKWELSRARLTLGKPLGEGCFGQVVMAEAIGIDKDRAAKPVTVAVKMLKDDATDKDLSDLVSEMEMMKMIGKHKNIINLLGACTQGGPLYVLVEYAAKGNLREFLRARRPPGLDYSFDTCKPPEEQLTFKDLVSCAYQVARGMEYLASQKCIHRDLAARNVLVTEDNVMKIADFGLARDVHNLDYYKKTTNGRLPVKWMAPEALFDRVYTHQSDVWSFGVLLWEIFTLGGSPYPGIPVEELFKLLKEGHRMDKPANCTHDLYMIMRECWHAAPSQRPTFKQLVEDLDRVLTVTSTDEYLDLSAPFEQYSPGGQDTPSSSSSGDDSVFAHDLLPPAPPSSGGSRT,Strong
5,INSRR (protein) YGKKRNRTLYASVNPEYFSASDMYVPDEWEVPREQISIIRELGQGSFGMVYEGLARGLEAGEESTPVALKTVNELASPRECIEFLKEASVMKAFKCHHVVRLLGVVSQGQPTLVIMELMTRGDLKSHLRSLRPEAENNPGLPQPALGEMIQMAGEIADGMAYLAANKFVHRDLAARNCMVSQDFTVKIGDFGMTRDVYETDYYRKGGKGLLPVRWMAPESLKDGIFTTHSDVWSFGVVLWEIVTLAEQPYQGLSNEQVLKFVMDGGVLEELEGCPLQLQELMSRCWQPNPRLRPSFTHILDSIQEELRPSFRLLSFYYSPECRGARGSLPTTDAEPDSSPTPRDCSPQNGGPGH,Negative
6,FLT1(VEGFR1) (protein) RKMKRSSSEIKTDYLSIIMDPDEVPLDEQCERLPYDASKWEFARERLKLGKSLGRGAFGKVVQASAFGIKKSPTCRTVAVKMLKEGATASEYKALMTELKILTHIGHHLNVVNLLGACTKQGGPLMVIVEYCKYGNLSNYLKSKRDLFFLNKDAALHMEPKKEKMEPGLEQGKKPRLDSVTSSESFASSGFQEDKSLSDVEEEEDSDGFYKEPITMEDLISYSFQVARGMEFLSSRKCIHRDLAARNILLSENNVVKICDFGLARDIYKNPDYVRKGDTRLPLKWMAPESIFDKIYSTKSDVWSYGVLLWEIFSLGGSPYPGVQMDEDFCSRLREGMRMRAPEYSTPEIYQIMLDCWHRDPKERPRFAELVEKLGDLLQANVQQDGKDYIPINAILTGNSGFTYSTPAFSEDFFKESISAPKFNSGSSDDVRYVNAFKFMSLERIKTFEELLPNATSMFDDYQGDSSTLLASPMLKRFTWTDSKPKASLKIDLRVTSKSKESGLSDVSRPSFCHSSCGHVSEGKRRFTYDHAELERKIACCSPPPDYNSVVLYSTPPI,Strong
7,FGFR2 (protein) RMKNTTKKPDFSSQPAVHKLTKRIPLRRQVTVSAESSSSMNSNTPLVRITTRLSSTADTPMLAGVSEYELPEDPKWEFPRDKLTLGKPLGEGCFGQVVMAEAVGIDKDKPKEAVTVAVKMLKDDATEKDLSDLVSEMEMMKMIGKHKNIINLLGACTQDGPLYVIVEYASKGNLREYLRARRPPGMEYSYDINRVPEEQMTFKDLVSCTYQLARGMEYLASQKCIHRDLAARNVLVTENNVMKIADFGLARDINNIDYYKKTTNGRLPVKWMAPEALFDRVYTHQSDVWSFGVLMWEIFTLGGSPYPGIPVEELFKLLKEGHRMDKPANCTNELYMMMRDCWHAVPSQRPTFKQLVEDLDRILTLTTNEEYLDLSQPLEQYSPSYPDTRSSCSSGDDSVFSPDPMPYEPCLPQYPHINGSVKT,Strong
8,FGFR4 (protein) RGQALHGRHPRPPATVQKLSRFPLARQFSLESGSSGKSSSSLVRGVRLSSSGPALLAGLVSLDLPLDPLWEFPRDRLVLGKPLGEGCFGQVVRAEAFGMDPARPDQASTVAVKMLKDNASDKDLADLVSEMEVMKLIGRHKNIINLLGVCTQEGPLYVIVECAAKGNLREFLRARRPPGPDLSPDGPRSSEGPLSFPVLVSCAYQVARGMQYLESRKCIHRDLAARNVLVTEDNVMKIADFGLARGVHHIDYYKKTSNGRLPVKWMAPEALFDRVYTHQSDVWSFGILLWEIFTLGGSPYPGIPVEELFSLLREGHRMDRPPHCPPELYGLMRECWHAAPSQRPTFKQLVEALDKVLLAVSEEYLDLRLTFGPYSPSGGDASSTCSSSDSVFSHDPLPLGSSSFPFGSGVQT,Strong
9,KIT (protein) TYKYLQKPMYEVQWKVVEEINGNNYVYIDPTQLPYDHKWEFPRNRLSFGKTLGAGAFGKVVEATAYGLIKSDAAMTVAVKMLKPSAHLTEREALMSELKVLSYLGNHMNIVNLLGACTIGGPTLVITEYCCYGDLLNFLRRKRDSFICSKQEDHAEAALYKNLLHSKESSCSDSTNEYMDMKPGVSYVVPTKADKRRSVRIGSYIERDVTPAIMEDDELALDLEDLLSFSYQVAKGMAFLASKNCIHRDLAARNILLTHGRITKICDFGLARDIKNDSNYVVKGNARLPVKWMAPESIFNCVYTFESDVWSYGIFLWELFSLGSSPYPGMPVDSKFYKMIKEGFRMLSPEHAPAEMYDIMKTCWDADPLKRPTFKQIVQLIEKQISESTNHIYSNLANCSPNRQKPVVDHSVRINSVGSTASSSQPLLVHDDV,Negative
10,MUSK (protein) CCRRRKQWKNKKRESAAVTLTTLPSELLLDRLHPNPMYQRMPLLLNPKLLSLEYPRNNIEYVRDIGEGAFGRVFQARAPGLLPYEPFTMVAVKMLKEEASADMQADFQREAALMAEFDNPNIVKLLGVCAVGKPMCLLFEYMAYGDLNEFLRSMSPHTVCSLSHSDLSMRAQVSSPGPPPLSCAEQLCIARQVAAGMAYLSERKFVHRDLATRNCLVGENMVVKIADFGLSRNIYSADYYKANENDAIPIRWMPPESIFYNRYTTESDVWAYGVVLWEIFSYGLQPYYGMAHEEVIYYVRDGNILSCPENCPVELYNLMRLCWSKLPADRPSFTSIHRILERMCERAEGTVSV,Negative
11,MERTK (protein) KRVQETKFGNAFTEEDSELVVNYIAKKSFCRRAIELTLHSLGVSEELQNKLEDVVIDRNLLILGKILGEGEFGSVMEGNLKQEDGTSLKVAVKTMKLDNSSQREIEEFLSEAACMKDFSHPNVIRLLGVCIEMSSQGIPKPMVILPFMKYGDLHTYLLYSRLETGPKHIPLQTLLKFMVDIALGMEYLSNRNFLHRDLAARNCMLRDDMTVCVADFGLSKKIYSGDYYRQGRIAKMPVKWIAIESLADRVYTSKSDVWAFGVTMWEIATRGMTPYPGVQNHEMYDYLLHGHRLKQPEDCLDELYEIMYSCWRTDPLDRPTFSVLRLQLEKLLESLPDVRNQADVIYVNTQLLESSEGLAQGSTLAPLDLNIDPDSIIASCTPRAAISVVTAEVHDSKPHEGRYILNGGSEEWEDLTSAPSAAVTAEKNSVLPGERLVRNGVSWSHSSMLPLGSSLPDELLFADDSSEGSEVLM,Strong
12,IGF1R (protein) RKRNNSRLGNGVLYASVNPEYFSAADVYVPDEWEVAREKITMSRELGQGSFGMVYEGVAKGVVKDEPETRVAIKTVNEAASMRERIEFLNEASVMKEFNCHHVVRLLGVVSQGQPTLVIMELMTRGDLKSYLRSLRPEMENNPVLAPPSLSKMIQMAGEIADGMAYLNANKFVHRDLAARNCMVAEDFTVKIGDFGMTRDIYETDYYRKGGKGLLPVRWMSPESLKDGVFTTYSDVWSFGVVLWEIATLAEQPYQGLSNEQVLRFVMEGGLLDKPDNCPDMLFELMRMCWQYNPKMRPSFLEIISSIKEEMEPGFREVSFYYSEENKLPEPEELDLEPENMESVPLDPSASSSSLPLPDRHSGHKAENGPGPGVLVLRASFDERQPYAHMNGGRKNERALPLPQSSTC,Strong
